Here are results for one molecule from patent publication US20250032543A1 (CHILDREN S HOSPITAL OF PHILADELPHIA, published 2025).

The target in this experiment is T1, recombinant human (rh) CD16A protein conjugated with APC fluorophore (human, UniProt P08637 17-208, APC fluorophore conjugate).
T1 construct: also called APC-tagged rhCD16A
The experiment in a line: 'sandwich' flow cytometry: NB-EBC1 cells incubated with cSN, then stained with APC-conjugated rhCD16A. On the procedure:
FIGS. 3A-E. Production and binding characterization of BICEs. (FIG. 3A) Flow cytometry histograms showing His-tag cell surface expression in neuroblastoma cells incubated with concentrated supernatants (cSNs) from CAR constructs (CAR.GPC2, CAR.GPC2-BiCE.GD2 or CAR.GPC2-BICE.CD19) or 1×PBS and then stained with phycoerythrin (PE)-tagged anti-His-tag antibody. Neuroblastoma cells with high (NB-EBC1 and SMS-SAN) and low (SY5Y) GD2 expression were selected. Leukemia (NALM6) cells with high CD19 were utilized as controls. (FIG. 3B) Concentration-dependent binding of CAR.GPC2-BICE.GD2 cSN in GD2-high NB-EBC1 cells. (FIG. 3C) Binding competition assay between FDA-approved anti-GD2 antibody dinutuximab and CAR.GPC2-BiCE.GD2 cSNs. (FIG. 3D) Graphical scheme of the “sandwich” binding assays where GD2-expressing neuroblastoma cells were incubated with bicistronic vector cSNs and then stained with recombinant human (rh) CD16A protein previously conjugated with APC fluorophore. (FIG. 3E) Flow cytometry histograms showing CD16A sdAb APC staining in GD2-positive cells incubated with GPC2.CAR-GD2.BiCE cSN but not with control vector cSN (GPC2.CAR-CD19.BiCE).
Next, to study whether BiCEs might produce a molecular synapsis between GD2-expressing cells and CD16a, a “sandwich” binding assay was developed as illustrated in FIG. 3D. […]

T1 sequence (P08637 17-208 limits assumed): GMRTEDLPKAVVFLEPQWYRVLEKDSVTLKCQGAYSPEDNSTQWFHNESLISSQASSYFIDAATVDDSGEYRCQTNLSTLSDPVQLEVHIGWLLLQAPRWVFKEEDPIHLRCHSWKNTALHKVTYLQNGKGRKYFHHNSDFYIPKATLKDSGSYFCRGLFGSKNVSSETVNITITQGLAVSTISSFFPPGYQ

B1: GD2-targeted bispecific innate immune cell engager (GD2 scFv 14g2a linked to CD16A single-domain antibody sdA1, His-tagged) (bispecific antibody)
chain: DILLTQTPLSLPVSLGDQASISCRSSQSLVHRNGNTYLHWYLQKPGQSPKLLIHKVSNRFSGVPDRFSGSGSGTDFTLKISRVEAEDLGVYFCSQSTHVPPLTFGAGTKLELKGSTSGSGKPGSGEGSTKGEVKLQQSGPSLVEPGASVMISCKASGSSFTGYNMNWVRQNIGKSLEWIGAIDPYYGGTSYNQKFKGRATLTVDKSSSTAYMHLKSLTSEDSAVYYCVSGMEYWGQGTSVTVSSGSTSGSGKPGSGEGSTKGEVQLVESGGGLVQPGGSLRLSCAASGFTFSNYGMSWVRQAPGKGLEWIGSIYYSGSTNYNPSLKSLVTISRDNSKNTLYLQMNSLRAEDTATYYCARESIDYWGQGTLVTVSSHHHHHH
notes: Used as concentrated supernatant (cSN) of HEK 293T cells transfected with the bicistronic GPC2.CAR-GD2.BiCE vector; also called GD2 BiCE; GD2.BiCE
Take B1: the binding result is on record as “binds”.
